Assay results taken from paper PMC6661908.

Tested on: FOXA1 P358fs (purified)
Assay: BLI
Settings: buffer, pH and temperature not given

KLK3 enhancer 60 bp
binding signal (fold higher affinity than WT): 5
